Test results: patent US20180142032A1 (Sanofi, published 2018)

T1: LAMP1::histag (human, UniProt P11279 29-382)
T1 construct: extracellular domain without signal peptide, C-terminal 6 His tag, made in HEK293 cells; also called recombinant human LAMP1; human LAMP1 (29-382)
T1 sequence: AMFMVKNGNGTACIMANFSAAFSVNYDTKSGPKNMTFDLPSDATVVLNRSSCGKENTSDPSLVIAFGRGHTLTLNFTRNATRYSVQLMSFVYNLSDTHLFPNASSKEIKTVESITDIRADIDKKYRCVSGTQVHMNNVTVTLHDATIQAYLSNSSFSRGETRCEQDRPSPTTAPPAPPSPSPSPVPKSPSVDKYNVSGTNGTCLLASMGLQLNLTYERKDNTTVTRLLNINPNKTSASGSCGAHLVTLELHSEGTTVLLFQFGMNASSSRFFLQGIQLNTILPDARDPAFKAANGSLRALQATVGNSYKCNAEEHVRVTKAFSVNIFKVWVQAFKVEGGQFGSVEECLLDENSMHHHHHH

T2: hLAMP1_ΔGYQTI (human, UniProt P11279 29-412)
T2 construct: also called pXL5626
T2 sequence: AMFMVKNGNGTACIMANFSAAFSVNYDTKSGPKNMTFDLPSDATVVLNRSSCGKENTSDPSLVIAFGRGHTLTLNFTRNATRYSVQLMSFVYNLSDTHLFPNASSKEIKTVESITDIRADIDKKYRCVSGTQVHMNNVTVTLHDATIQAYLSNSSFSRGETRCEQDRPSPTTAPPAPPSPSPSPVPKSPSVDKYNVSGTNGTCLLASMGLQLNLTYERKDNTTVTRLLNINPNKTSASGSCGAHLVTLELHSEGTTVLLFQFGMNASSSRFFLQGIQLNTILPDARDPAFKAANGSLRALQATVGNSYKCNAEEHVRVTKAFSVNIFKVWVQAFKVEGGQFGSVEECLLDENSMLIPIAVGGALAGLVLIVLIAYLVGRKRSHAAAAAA

T3: mLAMP1_ΔGYQTI (mouse, UniProt P11438 25-369)
T3 construct: on cells; also called pXL6009; murine LAMP1; not shown: murine transmembrane domain and cytoplasmic tail with GYQTI replaced by 5 Ala
T3 sequence: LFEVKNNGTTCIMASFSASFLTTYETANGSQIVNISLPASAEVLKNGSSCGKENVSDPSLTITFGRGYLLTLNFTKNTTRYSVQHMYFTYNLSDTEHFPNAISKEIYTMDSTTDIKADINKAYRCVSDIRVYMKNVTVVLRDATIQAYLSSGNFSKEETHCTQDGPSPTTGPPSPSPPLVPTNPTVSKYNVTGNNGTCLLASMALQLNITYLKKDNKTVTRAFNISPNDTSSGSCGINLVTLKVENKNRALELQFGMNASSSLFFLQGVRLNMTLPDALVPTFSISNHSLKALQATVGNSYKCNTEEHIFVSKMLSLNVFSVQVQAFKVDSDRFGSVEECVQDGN

T4: mLAMP1_hseq6-11_ΔGYQTI (mouse; human, UniProt P11438 25-369)
T4 construct: on cells; also called pXL6041; not shown: murine transmembrane domain and cytoplasmic tail with GYQTI replaced by 5 Ala
T4 chain: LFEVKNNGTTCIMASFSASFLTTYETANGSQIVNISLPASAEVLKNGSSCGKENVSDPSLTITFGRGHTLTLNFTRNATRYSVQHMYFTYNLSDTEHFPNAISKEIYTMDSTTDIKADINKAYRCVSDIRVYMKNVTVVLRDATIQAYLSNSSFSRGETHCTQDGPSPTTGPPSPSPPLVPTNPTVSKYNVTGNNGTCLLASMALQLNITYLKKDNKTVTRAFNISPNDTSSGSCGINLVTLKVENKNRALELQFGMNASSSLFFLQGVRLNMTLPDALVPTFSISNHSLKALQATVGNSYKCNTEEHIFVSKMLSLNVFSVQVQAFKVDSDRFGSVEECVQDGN

B1: MAb1 (antibody, mouse IgG2a, kappa)
heavy: QVQLQQSGAELVKPGASVKMSCKASGYIFTNYNIHWVKKSPGQGLEWIGAIYPGNGDAPYSQKFKDKATLTADKSSSTTYMQLSRLTSEDSAVYYCVRANWDVAFAYWGQGTLVSVSAAKTTAPSVYPLAPVCGDTTGSSVTLGCLVKGYFPEPVTLTWNSGSLSSGVHTFPAVLQSDLYTLSSSVTVTSSTWPSQSITCNVAHPASSTKVDKKIEPRGPTIKPCPPCKCPAPNLLGGPSVFIFPPKIKDVLMISLSPIVTCVVVDVSEDDPDVQISWFVNNVEVHTAQTQTHREDYNSTLRVVSALPIQHQDWMSGKEFKCKVNNKDLPAPIERTISKPKGSVRAPQVYVLPPPEEEMTKKQVTLTCMVTDFMPEDIYVEWTNNGKTELNYKNTEPVLDSDGSYFMYSKLRVEKKNWVERNSYSCSVVHEGLHNHHTTKSFSRTPGK
light: DIQMTQSPPSLSASLGGKVTITCKASQDIDRYMAWYQDKPGKGPRLLIHDTSTLQPGIPSRFSGSGSGRDYSFSISNLEPEDIATYYCLQYDNLWTFGGGTKLEIKRADAAPTVSIFPPSSEQLTSGGASVVCFLNNFYPKDINVKWKIDGSERQNGVLNSWTDQDSKDSTYSMSSTLTLTKDEYERHNSYTCEATHKTSTSPIVKSFNRNEC
notes: murine monoclonal IgG, kappa, from hybridoma; also called murine MAb1
B2: MAb3 (antibody, V domains shown)
VH: QIQLVQSGPELKKPGETVKISCKASGYIFTNYGMNWVKQAPGKGLKWMGWINTYTGESRYADDFKGRFALSLETSASTAYLQINNLENEDMATYFCAREDYYGNSPWFFDVWGAGTTVTVSS
VL: DIQMTQTTSSLSASLGDRVTISCNASQGINKYLNWYQQKPDGTVKLLIYYTSTLHSGVPSRFSGSGSGTDYSLTINNLEPEDIATYYCQQYTKLPFTFGSGTKLEIK
notes: murine monoclonal IgG, kappa, from hybridoma; also called murine MAb3
B3: MAb2 (antibody, mouse IgG1, kappa)
heavy: QVQLQQSAAELARPGASVKMSCKASGYTFTSYTMHWVKQRPGQGLEWIGYFNPSSGYPEYNQKFKDKTTLTADKSSNTAFIQLNSLTSEDSAVYYCSRGYYYGSRGYALDFWGQGASVTVSSAKTTPPSVYPLAPGSAAQTNSMVTLGCLVKGYFPEPVTVTWNSGSLSSGVHTFPAVLQSDLYTLSSSVTVPSSTWPSETVTCNVAHPASSTKVDKKIVPRDCGCKPCICTVPEVSSVFIFPPKPKDVLTITLTPKVTCVVVDISKDDPEVQFSWFVDDVEVHTAQTQPREEQFNSTFRSVSELPIMHQDWLNGKEFKCRVNSAAFPAPIEKTISKTKGRPKAPQVYTIPPPKEQMAKDKVSLTCMITDFFPEDITVEWQWNGQPAENYKNTQPIMDTDGSYFVYSKLNVQKSNWEAGNTFTCSVLHEGLHNHHTEKSLSHSPGK
light: NIVLTQSPVSLAVSLGQRATISCRASESVDINGNTFMHWYQQKPGQSPKLVIYAASNIESGVPARFSGSGSSTDFTFTIDPVEADDVATYYCQQNIEDPWTFGGGTKVEIKRADAAPTVSIFPPSSEQLTSGGASVVCFLNNFYPKDINVKWKIDGSERQNGVLNSWTDQDSKDSTYSMSSTLTLTKDEYERHNSYTCEATHKTSTSPIVKSFNRNEC
notes: murine monoclonal IgG, kappa, from hybridoma; also called murine MAb2
B4: huMAb1_1 (antibody, human IgG1, kappa)
heavy: not shown
light: DIQMTQSPSSLSASVGDRVTITCKASQDIDRYMAWYQDKPGKAPRLLIHDTSTLQSGVPSRFSGSGSGRDYTLTISNLEPEDFATYYCLQYDNLWTFGGGTKVEIKRTVAAPSVFIFPPSDEQLKSGTASVVCLLNNFYPREAKVQWKVDNALQSGNSQESVTEQDSKDSTYSLSSTLTLSKADYEKHKVYACEVTHQGLSSPVTKSFNRGEC
notes: humanized, VH1-huIgG1 and VL1-huCk

What was measured:
[1] = target: T5, recombinant human LAMP2 with a C-terminal 10 His-tag (human, UniProt P13473 29-375); test: ELISA on coated LAMP2
T5 construct: bought; also called soluble LAMP2 protein (R&D Systems 6228-LM)
T5 sequence (P13473 other isoform, or with tags, fused parts or gaps): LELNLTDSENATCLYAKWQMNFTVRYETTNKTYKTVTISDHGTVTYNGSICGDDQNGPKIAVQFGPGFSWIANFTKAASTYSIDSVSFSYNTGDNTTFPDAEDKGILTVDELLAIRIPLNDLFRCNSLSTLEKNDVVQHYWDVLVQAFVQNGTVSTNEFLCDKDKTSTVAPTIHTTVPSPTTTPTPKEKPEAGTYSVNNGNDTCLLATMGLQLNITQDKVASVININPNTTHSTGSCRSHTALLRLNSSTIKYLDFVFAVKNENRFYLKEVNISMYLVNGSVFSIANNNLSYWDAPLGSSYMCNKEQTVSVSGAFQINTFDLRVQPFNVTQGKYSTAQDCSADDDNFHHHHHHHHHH
Description: LAMP2 is the closest member of the LAMP family with 35% sequence identity to LAMP1. […] Anti-LAMP1 antibodies were added to the plates and detected by using rabbit anti-mouse IgG conjugated with horseradish peroxidase (Sigma; #A9044). Antibody binding was visualized by adding TMB-H₂O₂ buffer and read at a wavelength of 450 nm.

[2] = target: T1, LAMP1::histag; test: ELISA on secreted LAMP1
[3] = target: T2, hLAMP1_ΔGYQTI; test: flow cytometry, transfected 293-F cells
[4] = target: T6, LAMP1_mseq2_ΔGYQTI (human; mouse); test: flow cytometry, transfected 293-F cells
T6 construct: on cells; also called pXL6013

[5] = target: T7, LAMP1_mseq3_ΔGYQTI (human; mouse); test: flow cytometry, transfected 293-F cells
T7 construct: on cells; also called pXL6014

[6] = target: T8, LAMP1_mseq5_ΔGYQTI (human; mouse); test: flow cytometry, transfected 293-F cells
T8 construct: on cells; also called pXL6017

[7] = target: T3, mLAMP1_ΔGYQTI; test: flow cytometry, transfected 293-F cells, experiment 1
[8] = target: T4, mLAMP1_hseq6-11_ΔGYQTI; test: as above
[9] = target: T1, LAMP1::histag; test: SPR (BIAcore 2000), mAb captured by anti-Fc, LAMP1 injected 1 to 256 nM
Description: The binding kinetics of the murine, chimer or humanized anti-LAMP1 mAbs were determined by surface plasmon resonance assay using a BIAcore 2000 (BIAcore Inc., Uppsala, N.J.). […] A mouse anti-αhuman Fc IgG1 (BIAcore #BR-1008-39) and rabbit anti-αmurine Fc IgG1 (BIAcore #BR-1008-38) (50 μg/mL in […], pH5) were immobilized on the activated chips in all flow cells. The immobilization was carried out at a flow rate of 10 μL/min up to saturation. The chip was then blocked by injection of 70 μL of ethanolamine-HCl, pH 8.5, followed by one wash with 3 M MgCl₂ for anti-αhuman Fc IgG1 and one wash with 10 mM Glycine-HCl pH 1.7 for anti-αmurine Fc IgG1. To measure the binding of anti-LAMP1 mAbs to LAMP1, antibodies were used at 1-5 μg/mL in BIAcore running buffer (HBS-EP). […] Following completion of the injection phase, dissociation was monitored in a BIAcore running buffer at the same flow rate for 600 sec. […] Individual sensorgrams were analyzed using BIAevaluation software.

Binder	binding result [1]	EC50 [2] [nM]	mean fluorescence [3]	mean fluorescence [4]	mean fluorescence [5]	mean fluorescence [6]	binding result [7]	mean fluorescence [7]	mean fluorescence [8]	Kd [9] [nM]	binding result [8]
B1	no binding	~0.2	914	990	888	846	no binding	4	680	4.8	
B2	no binding		749	803	674	721				4.7	
B3	no binding	~0.3	757	694	694	629	no binding	21	28	63.5	no binding
B4										8.2	
